Laboratory results taken from US10704030B2, “P450-BM3 variants with improved activity” (Codexis, Inc., priority 2015, dated 2020).
Residue numbers refer to the chain shown, from its start. In names and notes the source's numbering stands.

B1: SEQ ID NO:16: P450-BM3 parental backbone from the commercially available MCYP panel (MCYP-0343; Codexis) (protein)
chain: MTIKEMPQPKTFGELKNLPLLNTDKPVQALMKIADELGEIFKFEAPGCVTRYLSSQRLIKEACDESRFDKNLSQALKFARDFLGDGLVTSWTHEINWKKAHNILLPSFSQQAMKGYHAMMVDIAVQLVQKWERLNADEHIEVSEDMTRLTLDTIGLCGFNYRFNSFYRDQPHPFIISMVRALDEVMNKLQRANPDDPAYDENKRQCQEDIKVMNDLVDKIIADRKARGEQSDDLLTQMLNGKDPETGEPLDDGNISYQIITFLIAGHETTSGLLSFALYFLVKNPHVLQKVAEEAARVLVDPVPSYKQVKQLKYVGMVLNEALRLWPTAPAFSLYAKEDTVLGGEYPLEKGDEVMVLIPQLHRDKTIWGDDVEEFRPERFENPSAIPQHAFKPFGNGQRACIGQQFALHEATLVLGMMLKHFDFEDHTNYELDIKETLTLKPEGFVVKAKSKKIPLGGIPSPSTEQSAKKVRKKAENAHNTPLLVLYGSNMGTAEGTARDLADIAMSKGFAPQVATLDSHAGNLPREGAVLIVTASYNGHPPDNAKQFVDWLDQASADEVKGVRYSVFGCGDKNWATTYQKVPAFIDETLAAKGAENIADRGEADASDDFEGTYEEWREHMWSDVAAYFNLDIENSEDNKSTLSLQFVDSAADMPLAKMHGAFSTNVVASKELQQPGSARSTRHLEIELPKEASYQEGDHLGVIPRNYEGIVNRVTARFGLDASQQIRLEAEEEKLAHLPLAKTVSVEELLQYVELQDPVTRTQLRAMAAKTVCPPHKVELEALLEKQAYKEQVLAKRLTMLELLEKYPACEMKFSEFIALLPSIRPRYYSISSSPRVDEKQASITVSVVSGEAWSGYGEYKGIASNYLAELQEGDTITCFISTPQSEFTLPKDPETPLIMVGPGTGVAPFRGFVQARKQLKEQGQSLGEAHLYFGCRSPHEDYLYQEELENAQSEGIITLHTAFSRMPNQPKTYVQHVMEQDGKKLIELLDQGAHFYICGDGSQMAPAVEATLMKSYADVHQVSEADARLWLQQLEEKGRYAKDVWAG
modifications: P450_BM3
B2: Variant 18: P450-BM3 variant of SEQ ID NO:16: K32R; C48S; Y52F; I95P; I176V; L216Y; D232H; E349K; M491A; N574T; E619D; D722S; A767T (protein)
chain: MTIKEMPQPKTFGELKNLPLLNTDKPVQALMRIADELGEIFKFEAPGSVTRFLSSQRLIKEACDESRFDKNLSQALKFARDFLGDGLVTSWTHEPNWKKAHNILLPSFSQQAMKGYHAMMVDIAVQLVQKWERLNADEHIEVSEDMTRLTLDTIGLCGFNYRFNSFYRDQPHPFIVSMVRALDEVMNKLQRANPDDPAYDENKRQCQEDIKVMNDYVDKIIADRKARGEQSHDLLTQMLNGKDPETGEPLDDGNISYQIITFLIAGHETTSGLLSFALYFLVKNPHVLQKVAEEAARVLVDPVPSYKQVKQLKYVGMVLNEALRLWPTAPAFSLYAKEDTVLGGEYPLKKGDEVMVLIPQLHRDKTIWGDDVEEFRPERFENPSAIPQHAFKPFGNGQRACIGQQFALHEATLVLGMMLKHFDFEDHTNYELDIKETLTLKPEGFVVKAKSKKIPLGGIPSPSTEQSAKKVRKKAENAHNTPLLVLYGSNAGTAEGTARDLADIAMSKGFAPQVATLDSHAGNLPREGAVLIVTASYNGHPPDNAKQFVDWLDQASADEVKGVRYSVFGCGDKTWATTYQKVPAFIDETLAAKGAENIADRGEADASDDFEGTYEEWRDHMWSDVAAYFNLDIENSEDNKSTLSLQFVDSAADMPLAKMHGAFSTNVVASKELQQPGSARSTRHLEIELPKEASYQEGDHLGVIPRNYEGIVNRVTARFGLSASQQIRLEAEEEKLAHLPLAKTVSVEELLQYVELQDPVTRTQLRTMAAKTVCPPHKVELEALLEKQAYKEQVLAKRLTMLELLEKYPACEMKFSEFIALLPSIRPRYYSISSSPRVDEKQASITVSVVSGEAWSGYGEYKGIASNYLAELQEGDTITCFISTPQSEFTLPKDPETPLIMVGPGTGVAPFRGFVQARKQLKEQGQSLGEAHLYFGCRSPHEDYLYQEELENAQSEGIITLHTAFSRMPNQPKTYVQHVMEQDGKKLIELLDQGAHFYICGDGSQMAPAVEATLMKSYADVHQVSEADARLWLQQLEEKGRYAKDVWAG
modifications: P450_BM3
notes: C48S; Y52F; I95P; I176V; L216Y; D232H; E349K; M491A; N574T; E619D; D722S; A767T
B3: Variant 19: P450-BM3 variant of SEQ ID NO:16: C48S; Y52F; I95P; Q111R; I176V; L216Y; D232H; P347T; M491A; N574T; D722S (protein)
chain: B2 chain with R32K, Q111R, P347T, K349E, D619E, T767A
modifications: P450_BM3
notes: Y52F; I95P; Q111R; I176V; L216Y; D232H; P347T; M491A; N574T; D722S
B4: Variant 1: P450-BM3 variant of SEQ ID NO: 14: Y52F; K95P; G115R; T176V; L216Y; D232H; E349T; M491A; T577A; E619D (protein)
chain: MTIKEMPQPKTFGELKNLPLLNTDKPVQALMKIADELGEIFKFEAPGLVTRFLSSQRLIKEACDESRFDKNLSQALKFARDFAGDGLFTSWTHEPNWKKAHNILLPSFSQQAMKRYHAMMVDIAVQLVQKWERLNADEHIEVPEDMTRLTLDTIGLCGFNYRFNSFYRDQPHPFIVSMVRALDEAMNKQQRANPDDPAYDENKRQFQEDIKVMNDYVDKIIADRKASGEQSHDLLTHMLNGKDPETGEPLDDENIRYQIITFLIAGHETTSGLLSFALYFLVKNPHVLQKAAEEAARVLVDPVPSYKQVKQLKYVGMVLNEALRLWPTAPAFSLYAKEDTVLGGEYPLTKGDELMVLIPQLHRDKTIWGDDVEEFRPERFENPSAIPQHAFKPFGNGQRACIGQQFALHEATLVLGMMLKHFDFEDHTNYELDIKETLTLKPEGFVVKAKSKKIPLGGIPSPSTEQSAKKVRKKAENAHNTPLLVLYGSNAGTAEGTARDLADIAMSKGFAPQVATLDSHAGNLPREGAVLIVTASYNGHPPDNAKQFVDWLDQASADEVKGVRYSVFGCGDKNWAATYQKVPAFIDETLAAKGAENIADRGEADASDDFEGTYEEWRDHMWSDVAAYFNLDIENSEDNKSTLSLQFVDSAADMPLAKMHGAFSTNVVASKELQQPGSARSTRHLEIELPKEASYQEGDHLGVIPRNYEGIVNRVTARFGLDASQQIRLEAEEEKLAHLPLAKTVSVEELLQYVELQDPVTRTQLRAMAAKTVCPPHKVELEALLEKQAYKEQVLAKRLTMLELLEKYPACEMKFSEFIALLPSIRPRYYSISSSPRVDEKQASITVSVVSGEAWSGYGEYKGIASNYLAELQEGDTITCFISTPQSEFTLPKDPETPLIMVGPGTGVAPFRGFVQARKQLKEQGQSLGEAHLYFGCRSPHEDYLYQEELENAQSEGIITLHTAFSRMPNQPKTYVQHVMEQDGKKLIELLDQGAHFYICGDGSQMAPAVEATLMKSYADVHQVSEADARLWLQQLEEKGRYAKDVWAG
modifications: P450_BM3
notes: K95P; G115R; T176V; L216Y; D232H; E349T; M491A; T577A; E619D
B5: Variant 2: P450-BM3 variant of SEQ ID NO: 14: Y52F; G115R; T176V; L216Y; D232H; P347T; E349T; T577A; D722S (protein)
chain: B4 chain with P95K, P347T, A491M, D619E, D722S
modifications: P450_BM3
notes: G115R; T176V; L216Y; D232H; P347T; E349T; T577A; D722S

Experiment: Validation of generalist properties: oxidation of gefitinib by lyophilized P450-BM3 variant, UPLC-MS
Assay type: biochemical
Details: [Gefitinib] = 1 mM
Method in brief: (§1)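 Lyophilized lysate of E. coli-expressed P450-BM3 variant (stock standardized to 12 μM heme) was incubated 24 h at 30 °C with 1 or 2 mM substrate, 1.0 mM NADP+, 25 mM glucose, 0.5 mg/mL glucose dehydrogenase and 5% DMSO in 100 mM potassium phosphate. Acetonitrile-quenched samples were analyzed by UPLC-MS (positive ESI).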

Molecule	% Conv.
B1	+ (0-5.00)
B2	++++ (15.01-20.00)
B3	++++ (15.01-20.00)
B4	+ (0-5.00)
B5	+ (0-5.00)

Same assay, conditions: [Gefitinib] = 1 mM; TON = [substrate]*% conversion/[P450]

Molecule	TON
B1	‡‡ (1001-5000)
B2	‡‡‡‡ (10000-50000)
B3	‡‡‡‡ (10000-50000)
B4	‡ (0-1000)
B5	‡ (0-1000)

Same assay, conditions: [Gefitinib] = 1 mM; fold improvement over parent MCYP-1.2-F12

Molecule	FIOPC (F12)
B2	**** (10.01-15.00)
B3	**** (10.01-15.00)

Same assay, conditions: [Gefitinib] = 1 mM; fold improvement over parent MCYP-P1.2-F02

Molecule	FIOPC (F02)
B4	* (0.0-3.0)
B5	* (0.0-3.0)

Experiment: Validation of generalist properties: oxidation of loratadine by lyophilized P450-BM3 variant, UPLC-MS
Assay type: biochemical
Details: [Loratadine] = 1 mM
Method in brief: as §1

Molecule	% Conv.
B1	+++ (10.01-15.00)
B2	++ (5.01-10.00)
B3	+++ (10.01-15.00)
B4	+ (0-5.00)
B5	+ (0-5.00)

Same assay, conditions: [Loratadine] = 1 mM; TON = [substrate]*% conversion/[P450]

Molecule	TON
B1	‡‡‡ (5001-10000)
B2	‡‡‡ (5001-10000)
B3	‡‡‡ (5001-10000)
B4	‡‡ (1001-5000)
B5	‡‡ (1001-5000)

Same assay, conditions: [Loratadine] = 1 mM; fold improvement over parent MCYP-1.2-F12

Molecule	FIOPC (F12)
B2	* (0.0-3.0)

Same assay, conditions: [Loratadine] = 1 mM; fold improvement over parent MCYP-P1.2-F02

Molecule	FIOPC (F02)
B3	* (0.0-3.0)
B4	* (0.0-3.0)
B5	* (0.0-3.0)

Experiment: Validation of generalist properties: oxidation of imatinib by lyophilized P450-BM3 variant, UPLC-MS
Assay type: biochemical
Details: [Imatinib] = 1 mM
Method in brief: as §1

Molecule	% Conv.
B1	+ (0-5.00)
B2	+++ (10.01-15.00)
B3	+++ (10.01-15.00)
B4	++++ (15.01-20.00)
B5	++++ (15.01-20.00)

Same assay, conditions: [Imatinib] = 1 mM; TON = [substrate]*% conversion/[P450]

Molecule	TON
B1	‡‡ (1001-5000)
B2	‡‡‡ (5001-10000)
B3	‡‡‡ (5001-10000)
B4	‡‡‡‡ (10000-50000)
B5	‡‡‡‡ (10000-50000)

Same assay, conditions: [Imatinib] = 1 mM; fold improvement over parent MCYP-1.2-F12

Molecule	FIOPC (F12)
B2	** (3.01-5.0)
B3	** (3.01-5.0)

Same assay, conditions: [Imatinib] = 1 mM; fold improvement over parent MCYP-P1.2-F02

Molecule	FIOPC (F02)
B4	**** (10.01-15.00)
B5	**** (10.01-15.00)

Experiment: Validation of generalist properties: oxidation of diclofenac by lyophilized P450-BM3 variant, UPLC-MS
Assay type: biochemical
Details: [Diclofenac] = 1 mM
Method in brief: as §1

Molecule	% Conv.
B1	++++ (15.01-20.00)
B2	++++ (15.01-20.00)
B3	++++ (15.01-20.00)
B4	+ (0-5.00)
B5	+ (0-5.00)

Same assay, conditions: [Diclofenac] = 1 mM; TON = [substrate]*% conversion/[P450]

Molecule	TON
B1	‡‡‡‡ (10000-50000)
B2	‡‡‡‡ (10000-50000)
B3	‡‡‡‡ (10000-50000)
B4	‡‡ (1001-5000)
B5	‡‡ (1001-5000)

Same assay, conditions: [Diclofenac] = 1 mM; fold improvement over parent MCYP-1.2-F12

Molecule	FIOPC (F12)
B2	* (0.0-3.0)
B3	* (0.0-3.0)

Same assay, conditions: [Diclofenac] = 1 mM; fold improvement over parent MCYP-P1.2-F02

Molecule	FIOPC (F02)
B4	**** (10.01-15.00)
B5	**** (10.01-15.00)
